Source: patent US20130005646A1 (Novo Nordisk, published 2013)
Each block holds one binder with its values, some of them ahead of it. Starred links: 1 amine or outer side, 2 acyl side, 3 side chain; linkers in the order of their positions; H or OH if unused. Positions of bridges follow the written chain, without caps; N, C: chain ends. *: point of attachment. C20 diacid = O=C(O)CCCCCCCCCCCCCCCCCCC(=O)*; 19‑carboxyheptadecanoyl = not defined here; γGlu = O=C(O)[C@H](CCC(=O)[*:2])N[*:1]; AEEA = NCCOCCOCC(=O)O

Assays:
[1] = biological target: T1, human amylin 3(a) receptor (human calcitonin receptor + RAMP-3) (human, UniProt P30988 25-474; O60896 24-148); assay: cell-based or functional assay
T1 sequence (looked up) 1: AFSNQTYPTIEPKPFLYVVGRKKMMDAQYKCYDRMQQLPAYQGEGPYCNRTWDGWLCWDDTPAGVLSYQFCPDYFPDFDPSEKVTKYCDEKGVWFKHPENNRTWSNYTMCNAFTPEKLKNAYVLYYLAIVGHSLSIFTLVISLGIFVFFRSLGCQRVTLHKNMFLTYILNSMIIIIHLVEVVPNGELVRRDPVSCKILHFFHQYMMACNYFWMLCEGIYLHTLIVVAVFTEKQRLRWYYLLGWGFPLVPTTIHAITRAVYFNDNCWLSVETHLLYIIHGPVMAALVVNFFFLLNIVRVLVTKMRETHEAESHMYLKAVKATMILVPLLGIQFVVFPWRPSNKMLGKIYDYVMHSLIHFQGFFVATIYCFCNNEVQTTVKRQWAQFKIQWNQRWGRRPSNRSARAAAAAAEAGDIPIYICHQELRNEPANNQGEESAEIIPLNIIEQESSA
T1 sequence (looked up) 2: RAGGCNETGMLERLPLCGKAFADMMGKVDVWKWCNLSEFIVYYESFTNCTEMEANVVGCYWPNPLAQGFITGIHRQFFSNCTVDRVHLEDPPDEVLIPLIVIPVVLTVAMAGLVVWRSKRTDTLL

[2] = biological target: T2, human calcitonin (a) receptor (human, UniProt P30988 25-474); assay: cell-based or functional assay
T2 sequence (looked up): T1 sequence (looked up) 1

Amylin receptor human EC50 [1]: 0.411 nM | CTa receptor human EC50 [2]: 2.19 nM
B1: N-alpha-[(S)-4-Carboxy-4-(19-carboxynonadecanoylamino)butyryl]-Glu-Arg-[Glu1,Glu14,Arg17,Gln21,Gln35,Pro37]-pramlintide (peptide)
peptide: {C20 diacid-γGlu}-ERECNTATCATQRLAEFLRHSSQNFGPILPPTNVGSQTP-NH2
modifications: disulfide 4-9
SMILES: CC[C@H](C)[C@H](NC(=O)[C@@H]1CCCN1C(=O)CNC(=O)[C@H](Cc1ccccc1)NC(=O)[C@H](CC(N)=O)NC(=O)[C@H](CCC(N)=O)NC(=O)[C@H](CO)NC(=O)[C@H](CO)NC(=O)[C@H](Cc1c[nH]cn1)NC(=O)[C@H](CCCNC(=N)N)NC(=O)[C@H](CC(C)C)NC(=O)[C@H](Cc1ccccc1)NC(=O)[C@H](CCC(=O)O)NC(=O)[C@H](C)NC(=O)[C@H](CC(C)C)NC(=O)[C@H](CCCNC(=N)N)NC(=O)[C@H](CCC(N)=O)NC(=O)[C@@H](NC(=O)[C@H](C)NC(=O)[C@@H]1CSSC[C@H](NC(=O)[C@H](CCC(=O)O)NC(=O)[C@H](CCCNC(=N)N)NC(=O)[C@H](CCC(=O)O)NC(=O)CC[C@H](NC(=O)CCCCCCCCCCCCCCCCCCC(=O)O)C(=O)O)C(=O)N[C@@H](CC(N)=O)C(=O)N[C@@H]([C@@H](C)O)C(=O)N[C@@H](C)C(=O)N[C@@H]([C@@H](C)O)C(=O)N1)[C@@H](C)O)C(=O)N[C@@H](CC(C)C)C(=O)N1CCC[C@H]1C(=O)N1CCC[C@H]1C(=O)N[C@H](C(=O)N[C@@H](CC(N)=O)C(=O)N[C@H](C(=O)NCC(=O)N[C@@H](CO)C(=O)N[C@@H](CCC(N)=O)C(=O)N[C@H](C(=O)N1CCC[C@H]1C(N)=O)[C@@H](C)O)C(C)C)[C@@H](C)O

Amylin receptor human EC50 [1]: 0.203 nM | CTa receptor human EC50 [2]: 0.113 nM
B2: N-alpha-[2-(2-{2-[2-(2-{2-[(S)-4-Carboxy-4-(19-carboxyheptadecanoylamino)butyrylamino]ethoxy}ethoxy)acetylamino]ethoxy}ethoxy)acetyl]-[Glu14,His17,Glu21,Pro37]- … (peptide)
peptide: {19‑carboxyheptadecanoyl-γGlu-AEEA-AEEA}-KCNTATCATQRLAEFLHHSSENFGPILPPTNVGSNTP-NH2
modifications: disulfide 2-7; reading uncertain; also: printed as N-alpha-[2-(2-{2-[2-(2-{2-[(S)-4-Carboxy-4-(19-carboxyheptadecanoylamino)butyrylamino]ethoxy}ethoxy)acetylamino]ethoxy}ethoxy)acetyl]-[Glu14,His17,Glu21,Pro37]-pramlintide

Amylin receptor human EC50 [1]: 1.06 nM | CTa receptor human EC50 [2]: 3.71 nM
B3: N-alpha-[(S)-4-Carboxy-4-(19-carboxynonadecanoylamino)butyryl]-Glu-Arg-[Glu1,Glu14,Arg17,Gln21,Gln31,Gln35,Pro37]-pramlintide (peptide)
peptide: {C20 diacid-γGlu}-ERECNTATCATQRLAEFLRHSSQNFGPILPPTQVGSQTP-NH2
modifications: disulfide 4-9
SMILES: CC[C@H](C)[C@H](NC(=O)[C@@H]1CCCN1C(=O)CNC(=O)[C@H](Cc1ccccc1)NC(=O)[C@H](CC(N)=O)NC(=O)[C@H](CCC(N)=O)NC(=O)[C@H](CO)NC(=O)[C@H](CO)NC(=O)[C@H](Cc1c[nH]cn1)NC(=O)[C@H](CCCNC(=N)N)NC(=O)[C@H](CC(C)C)NC(=O)[C@H](Cc1ccccc1)NC(=O)[C@H](CCC(=O)O)NC(=O)[C@H](C)NC(=O)[C@H](CC(C)C)NC(=O)[C@H](CCCNC(=N)N)NC(=O)[C@H](CCC(N)=O)NC(=O)[C@@H](NC(=O)[C@H](C)NC(=O)[C@@H]1CSSC[C@H](NC(=O)[C@H](CCC(=O)O)NC(=O)[C@H](CCCNC(=N)N)NC(=O)[C@H](CCC(=O)O)NC(=O)CC[C@H](NC(=O)CCCCCCCCCCCCCCCCCCC(=O)O)C(=O)O)C(=O)N[C@@H](CC(N)=O)C(=O)N[C@@H]([C@@H](C)O)C(=O)N[C@@H](C)C(=O)N[C@@H]([C@@H](C)O)C(=O)N1)[C@@H](C)O)C(=O)N[C@@H](CC(C)C)C(=O)N1CCC[C@H]1C(=O)N1CCC[C@H]1C(=O)N[C@H](C(=O)N[C@@H](CCC(N)=O)C(=O)N[C@H](C(=O)NCC(=O)N[C@@H](CO)C(=O)N[C@@H](CCC(N)=O)C(=O)N[C@H](C(=O)N1CCC[C@H]1C(N)=O)[C@@H](C)O)C(C)C)[C@@H](C)O

Amylin receptor human EC50 [1]: 0.039 nM | CTa receptor human EC50 [2]: 0.034 nM
B4: N-alpha-[(S)-4-Carboxy-4-(19-carboxynonadecanoylamino)butyryl]-[Glu14,Arg18,Gln21,Ala25,Pro26,Ser28,Ser29,Pro37]-pramlintide (peptide)
peptide: {C20 diacid-γGlu}-KCNTATCATQRLAEFLVRSSQNFGAPLSSTNVGSNTP-NH2
modifications: disulfide 2-7
SMILES: CC(C)C[C@H](NC(=O)[C@H](CCCNC(=N)N)NC(=O)[C@H](CCC(N)=O)NC(=O)[C@@H](NC(=O)[C@H](C)NC(=O)[C@@H]1CSSC[C@H](NC(=O)[C@H](CCCCN)NC(=O)CC[C@H](NC(=O)CCCCCCCCCCCCCCCCCCC(=O)O)C(=O)O)C(=O)N[C@@H](CC(N)=O)C(=O)N[C@@H]([C@@H](C)O)C(=O)N[C@@H](C)C(=O)N[C@@H]([C@@H](C)O)C(=O)N1)[C@@H](C)O)C(=O)N[C@@H](C)C(=O)N[C@@H](CCC(=O)O)C(=O)N[C@@H](Cc1ccccc1)C(=O)N[C@@H](CC(C)C)C(=O)N[C@H](C(=O)N[C@@H](CCCNC(=N)N)C(=O)N[C@@H](CO)C(=O)N[C@@H](CO)C(=O)N[C@@H](CCC(N)=O)C(=O)N[C@@H](CC(N)=O)C(=O)N[C@@H](Cc1ccccc1)C(=O)NCC(=O)N[C@@H](C)C(=O)N1CCC[C@H]1C(=O)N[C@@H](CC(C)C)C(=O)N[C@@H](CO)C(=O)N[C@@H](CO)C(=O)N[C@H](C(=O)N[C@@H](CC(N)=O)C(=O)N[C@H](C(=O)NCC(=O)N[C@@H](CO)C(=O)N[C@@H](CC(N)=O)C(=O)N[C@H](C(=O)N1CCC[C@H]1C(N)=O)[C@@H](C)O)C(C)C)[C@@H](C)O)C(C)C

Amylin receptor human EC50 [1]: 0.071 nM | CTa receptor human EC50 [2]: 0.085 nM
B5: N-alpha-[2-(2-{2-[2-(2-{2-[(S)-4-Carboxy-4-(19-carboxyheptadecanoylamino)butyrylamino]ethoxy}ethoxy)acetylamino]ethoxy}ethoxy)acetyl]-[Glu14,His17,Lys21,Pro37]- … (peptide)
peptide: {19‑carboxyheptadecanoyl-γGlu-AEEA-AEEA}-KCNTATCATQRLAEFLHHSSKNFGPILPPTNVGSNTP-NH2
modifications: disulfide 2-7; reading uncertain; also: printed as N-alpha-[2-(2-{2-[2-(2-{2-[(S)-4-Carboxy-4-(19-carboxyheptadecanoylamino)butyrylamino]ethoxy}ethoxy)acetylamino]ethoxy}ethoxy)acetyl]-[Glu14,His17,Lys21,Pro37]-pramlintide

Amylin receptor human EC50 [1]: 0.09 nM | CTa receptor human EC50 [2]: 0.076 nM
B6: N-alpha-[(S)-4-Carboxy-4-(19-carboxynonadecanoylamino)butyryl]-[Glu14,Arg18,Ser21,Ser22,Ser28,Ser29,Asp31,Asp35,Pro37]-pramlintide (peptide)
peptide: {C20 diacid-γGlu}-KCNTATCATQRLAEFLVRSSSSFGPILSSTDVGSDTP-NH2
modifications: disulfide 2-7
SMILES: CC[C@H](C)[C@H](NC(=O)[C@@H]1CCCN1C(=O)CNC(=O)[C@H](Cc1ccccc1)NC(=O)[C@H](CO)NC(=O)[C@H](CO)NC(=O)[C@H](CO)NC(=O)[C@H](CO)NC(=O)[C@H](CCCNC(=N)N)NC(=O)[C@@H](NC(=O)[C@H](CC(C)C)NC(=O)[C@H](Cc1ccccc1)NC(=O)[C@H](CCC(=O)O)NC(=O)[C@H](C)NC(=O)[C@H](CC(C)C)NC(=O)[C@H](CCCNC(=N)N)NC(=O)[C@H](CCC(N)=O)NC(=O)[C@@H](NC(=O)[C@H](C)NC(=O)[C@@H]1CSSC[C@H](NC(=O)[C@H](CCCCN)NC(=O)CC[C@H](NC(=O)CCCCCCCCCCCCCCCCCCC(=O)O)C(=O)O)C(=O)N[C@@H](CC(N)=O)C(=O)N[C@@H]([C@@H](C)O)C(=O)N[C@@H](C)C(=O)N[C@@H]([C@@H](C)O)C(=O)N1)[C@@H](C)O)C(C)C)C(=O)N[C@@H](CC(C)C)C(=O)N[C@@H](CO)C(=O)N[C@@H](CO)C(=O)N[C@H](C(=O)N[C@@H](CC(=O)O)C(=O)N[C@H](C(=O)NCC(=O)N[C@@H](CO)C(=O)N[C@@H](CC(=O)O)C(=O)N[C@H](C(=O)N1CCC[C@H]1C(N)=O)[C@@H](C)O)C(C)C)[C@@H](C)O

Amylin receptor human EC50 [1]: 1.71 nM | CTa receptor human EC50 [2]: 3.57 nM
B7: N-alpha-[(S)-4-Carboxy-4-(19-carboxynonadecanoylamino)butyryl]-Glu-Arg-[Glu1,Glu14,Arg17,Gln21,Gln22,Gln31,Gln35,Pro37]-pramlintide (peptide)
peptide: {C20 diacid-γGlu}-ERECNTATCATQRLAEFLRHSSQQFGPILPPTQVGSQTP-NH2
modifications: disulfide 4-9
SMILES: CC[C@H](C)[C@H](NC(=O)[C@@H]1CCCN1C(=O)CNC(=O)[C@H](Cc1ccccc1)NC(=O)[C@H](CCC(N)=O)NC(=O)[C@H](CCC(N)=O)NC(=O)[C@H](CO)NC(=O)[C@H](CO)NC(=O)[C@H](Cc1c[nH]cn1)NC(=O)[C@H](CCCNC(=N)N)NC(=O)[C@H](CC(C)C)NC(=O)[C@H](Cc1ccccc1)NC(=O)[C@H](CCC(=O)O)NC(=O)[C@H](C)NC(=O)[C@H](CC(C)C)NC(=O)[C@H](CCCNC(=N)N)NC(=O)[C@H](CCC(N)=O)NC(=O)[C@@H](NC(=O)[C@H](C)NC(=O)[C@@H]1CSSC[C@H](NC(=O)[C@H](CCC(=O)O)NC(=O)[C@H](CCCNC(=N)N)NC(=O)[C@H](CCC(=O)O)NC(=O)CC[C@H](NC(=O)CCCCCCCCCCCCCCCCCCC(=O)O)C(=O)O)C(=O)N[C@@H](CC(N)=O)C(=O)N[C@@H]([C@@H](C)O)C(=O)N[C@@H](C)C(=O)N[C@@H]([C@@H](C)O)C(=O)N1)[C@@H](C)O)C(=O)N[C@@H](CC(C)C)C(=O)N1CCC[C@H]1C(=O)N1CCC[C@H]1C(=O)N[C@H](C(=O)N[C@@H](CCC(N)=O)C(=O)N[C@H](C(=O)NCC(=O)N[C@@H](CO)C(=O)N[C@@H](CCC(N)=O)C(=O)N[C@H](C(=O)N1CCC[C@H]1C(N)=O)[C@@H](C)O)C(C)C)[C@@H](C)O
